Measurements from US9688760B2, “Anti-leukocyte adhesion for the mitigation of potential adverse events caused by CD3-specific binding domains” (AMGEN RESEARCH (MUNICH) GMBH, priority 2013, dated 2017).

Tested on: HBMEC
Test: In vitro flow chamber: T cell-rolling on HBMEC, long-term conditions
Type: cell-based, human
Conditions: non-stimulated HBMEC, 45 min
Protocol: Human brain microvascular endothelial cells (HBMEC) (#1000, Sciencell Research Laboratories) or human umbilical vein endothelial cells (HUVEC) (#C-12200, Promocell) were used as endothelial cell-model. Cryopreserved HBMEC at passage 1 (>5×10^5 cells/ml) were first cultivated in fibronectin-coated Nunclon-treated 75 cm^2 cell culture flasks (#156499, Nunc) at 37° C. and 5% CO2 in a Heraeus Cytoperm 2 (Thermo Scientific) according to the manufacturer's instructions. Sub-cultivation of HBMEC was done with the Detach Kit (#C-41200, Promocell) consisting of HEPES-buffered balanced salt solution (#C-40000, Promocell), trypsin-EDTA solution (0.04%/0.03%) (#C-41000, Promocell) and trypsin neutralization solution (TNS, #C-41100, Promocell). Briefly, the medium was aspirated from the HBMEC-layer and cells were washed with 2 ml of HEPES-buffered balanced salt solution. Addition of 2 ml of trypsin-EDTA solution for 1-5 min at room temperature led to detachment of HBMEC from the flask bottom. Inactivation of trypsin-EDTA solution was performed by addition of 2 ml of trypsin neutralization solution to the cell suspension. Cells were centrifuged at 300 g for 4 min in a Heraeus Megafuge 40 (Thermo Scientific) and seeded at a cell density of 5×10^5 cells per gelatin-coated 75 cm^2 cell culture flask (#L7230, Biochrom). […]

B1: recombinant P-selectin: recombinant human P-selectin (#ADP3-050, R&D Systems) (protein)
chain: WTYHYSTKAYSWNISRKYCQNRYTDLVAIQNKNEIDYLNKVLPYYSSYYWIGIRKNNKTWTWVGTKKALTNEAENWADNEPNNKRNNEDCVEIYIKSPSAPGKWNDEHCLKKKHALCYTASCQDMSCSKQGECLETIGNYTCSCYPGFYGPECEYVRECGELELPQHVLMNCSHPLGNFSFNSQCSFHCTDGYQVNGPSKLECLASGIWTNKPPQCLAAQCPPLKIPERGNMTCLHSAKAFQHQSSCSFSCEEGFALVGPEVVQCTASGVWTAPAPVCKAVQCQHLEAPSEGTMDCVHPLTAFAYGSSCKFECQPGYRVRGLDMLRCIDSGHWSAPLPTCEAISCEPLESPVHGSMDCSPSLRAFQYDTNCSFRCAEGFMLRGADIVRCDNLGQWTAPAPVCQALQCQDLPVPNEARVNCSHPFGAFRYQSVCSFTCNEGLLLVGASVLQCLATGNWNSVPPECQAIPCTPLLSPQNGTMTCVQPLGSSSYKSTCQFICDEGYSLSGPERLDCTRSGRWTDSPPMCEAIKCPELFAPEQGSLDCSDTRGEFNVGSTCHFSCDNGFKLEGPNNVECTTSGRWSATPPTCKGIASLPTPGVQCPALTTPGQGTMYCRHHPGTFGFNTTCYFGCNAGFTLIGDSTLSCRPSGQWTAVTPACRAVKCSELHVNKPIAMNCSNLWGNFSYGSICSFHCLEGQLLNGSAQTACQENGHWSTTVPTCQAGPLTIQEALTYFGGAVASTIGLIMGGTLLALLRKRFRQKDDGKCPLNPHSHLGTYGVFTNAAFDPSP
T cells pre-incubated with 5 μg/ml recombinant P-selectin, +AMG 103 10 ng/ml
  mean T cell-rolling velocity±SD: 402±93 μm/sec
−AMG 103, +rec. P-selectin 5 μg/ml
  mean T cell-rolling velocity±SD: 384±70 μm/sec
